Square brackets hold non-standard residues; d marks the D form. Sta = CC(C)C[C@H](N)[C@@H](O)CC(=O)O
What was measured:
β-secretase 46-452 = molecular target: T1, β-secretase 46-452 (human, UniProt P56817 46-452); test: binding to P10-P4′staD→V affinity matrix
T1 construct: C-terminally truncated form lacking the transmembrane region

[1] = molecular target: T2, recombinant β-secretase from 293T or Cos A2 cells transfected with the full-length construct, form with … (human, UniProt P56817 46-501); test: affinity chromatography on P10-P4′staD→V Sepharose, extracts of transfected 293T and COS A2 cells, pH 4.5
T2 construct: also called Recombinant, 293T; Recombinant, CosA2
T2 sequence (P56817 46-501): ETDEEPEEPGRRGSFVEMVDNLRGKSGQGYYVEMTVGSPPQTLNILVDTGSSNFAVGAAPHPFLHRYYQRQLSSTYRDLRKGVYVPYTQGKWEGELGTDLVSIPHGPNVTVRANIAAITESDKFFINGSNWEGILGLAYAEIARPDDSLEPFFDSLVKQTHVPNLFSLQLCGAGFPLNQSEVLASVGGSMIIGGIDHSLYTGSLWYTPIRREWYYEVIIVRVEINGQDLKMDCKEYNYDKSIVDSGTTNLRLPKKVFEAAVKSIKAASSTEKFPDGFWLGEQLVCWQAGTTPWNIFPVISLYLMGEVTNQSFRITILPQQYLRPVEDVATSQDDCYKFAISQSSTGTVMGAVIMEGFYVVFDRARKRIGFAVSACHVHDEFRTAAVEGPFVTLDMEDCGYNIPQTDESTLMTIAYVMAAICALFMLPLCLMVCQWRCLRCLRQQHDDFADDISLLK
Protocol: (§1) The cell pellet was resuspended by homogenizing for 30 seconds using a handheld homogenizer (0.5 ml/pellet of approximately 10^6 cells in extraction buffer consisting of 20 mM TRIS buffer, pH 7.5, 2 mM EDTA, 0.2% Triton X-100, plus protease inhibitors: 5 μg/ml E-64, 10 μg/ml pepstatin, 1 mM PMSF), centrifuged as maximum speed in a microfuge (40 minutes at 4 degrees C.). Pellets were suspended in original volume of extraction buffer, then stirred at 1 hour at 4 degrees C. with rotation, and centrifuted again in a microfuge at maximum speed for 40 minutes. The resulting supernatant was saved as the "extract." The extract was then diluted with 20 mm sodium acetate, pH 5.0, 2 mM EDTA and 0.2% Triton X-100 (SP buffer A), and 5 M NaCl was added to a final concentration of 60 mM NaCl. The pH of the solution was then adjusted to pH 5.0 with glacial acetic acid diluted 1:10 in water. Aliquots were saved ("SP load"). The SP load was passed through a 1 ml SP HiTrap column which was pre-washed with 5 ml SP buffer A, 5 ml SP buffer B (SP buffer A with 1 M NaCl) and 10 ml SP buffer A. An additional 2 ml of 5% SP buffer B was passed through the column to dissplace any remaining sample from the column. The pH of the SP flow-through was adjusted to pH 4.5 with 10× diluted acetic acid. This flow-through was then applied to a P10-P4'staD→V-Sepharose Affinity column, as described below. […]

[2] = molecular target: T3, recombinant β-secretase from Cos A2 cells, major form resulting from Gly-58 cleavage (human, UniProt P56817 58-501); test: N-terminal sequencing of fractions from P10-P4′(statine)D→V Sepharose, Cos A2 cells
T3 construct: C-terminus not determined
T3 sequence (P56817 58-501): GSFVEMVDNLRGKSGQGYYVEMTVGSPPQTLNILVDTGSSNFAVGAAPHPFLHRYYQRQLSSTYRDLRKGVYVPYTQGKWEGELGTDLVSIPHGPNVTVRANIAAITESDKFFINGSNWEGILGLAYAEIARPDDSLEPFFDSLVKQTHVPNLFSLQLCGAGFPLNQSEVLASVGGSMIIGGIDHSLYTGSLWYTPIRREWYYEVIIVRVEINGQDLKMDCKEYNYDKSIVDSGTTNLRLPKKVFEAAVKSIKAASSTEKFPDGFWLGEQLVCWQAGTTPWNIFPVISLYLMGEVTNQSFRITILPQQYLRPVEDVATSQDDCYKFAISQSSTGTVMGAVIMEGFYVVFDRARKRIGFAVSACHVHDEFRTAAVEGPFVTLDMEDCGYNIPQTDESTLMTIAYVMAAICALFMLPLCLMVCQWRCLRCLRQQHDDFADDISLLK
Protocol: as §1

[3] = molecular target: T4, recombinant β-secretase from 293T cells, minor form starting at Met-63 (human, UniProt P56817 63-501); test: N-terminal sequencing of fractions from P10-P4′(statine)D→V Sepharose, 293T cells
T4 construct: C-terminus not determined
T4 sequence (P56817 63-501): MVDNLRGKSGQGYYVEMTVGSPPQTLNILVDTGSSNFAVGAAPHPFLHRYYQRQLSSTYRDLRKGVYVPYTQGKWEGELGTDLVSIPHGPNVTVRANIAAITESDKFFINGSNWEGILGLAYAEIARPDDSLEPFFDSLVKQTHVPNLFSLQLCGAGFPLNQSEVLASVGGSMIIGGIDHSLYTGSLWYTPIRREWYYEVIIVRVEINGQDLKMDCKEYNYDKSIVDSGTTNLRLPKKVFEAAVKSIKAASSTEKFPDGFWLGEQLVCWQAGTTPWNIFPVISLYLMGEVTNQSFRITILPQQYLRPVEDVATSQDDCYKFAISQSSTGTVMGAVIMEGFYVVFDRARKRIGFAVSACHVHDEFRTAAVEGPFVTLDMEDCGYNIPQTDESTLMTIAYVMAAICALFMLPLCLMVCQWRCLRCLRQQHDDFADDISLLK
Protocol: as §1

[4] = molecular target: T5, recombinant β-secretase from 293T cells, minor form starting at Thr-22 (human, UniProt P56817 22-501); test: N-terminal sequencing of fractions from P10-P4′staD→V Sepharose, 293T cells
T5 construct: C-terminus not determined
T5 sequence (P56817 22-501): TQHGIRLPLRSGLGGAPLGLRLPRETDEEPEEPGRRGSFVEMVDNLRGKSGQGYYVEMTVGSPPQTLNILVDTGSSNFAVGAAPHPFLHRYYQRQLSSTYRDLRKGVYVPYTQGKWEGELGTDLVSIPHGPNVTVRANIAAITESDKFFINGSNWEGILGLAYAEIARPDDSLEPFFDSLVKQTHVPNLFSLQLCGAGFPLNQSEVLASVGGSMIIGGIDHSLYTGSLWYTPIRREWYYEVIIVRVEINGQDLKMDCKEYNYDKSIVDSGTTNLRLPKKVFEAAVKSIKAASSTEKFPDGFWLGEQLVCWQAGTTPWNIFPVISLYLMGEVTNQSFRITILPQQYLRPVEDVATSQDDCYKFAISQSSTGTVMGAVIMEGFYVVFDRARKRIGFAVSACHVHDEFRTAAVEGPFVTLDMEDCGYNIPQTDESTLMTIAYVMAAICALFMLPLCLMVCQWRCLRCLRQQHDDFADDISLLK
Protocol: as §1

Measured: binding result

T1 sequence (P56817 46-452 limits assumed): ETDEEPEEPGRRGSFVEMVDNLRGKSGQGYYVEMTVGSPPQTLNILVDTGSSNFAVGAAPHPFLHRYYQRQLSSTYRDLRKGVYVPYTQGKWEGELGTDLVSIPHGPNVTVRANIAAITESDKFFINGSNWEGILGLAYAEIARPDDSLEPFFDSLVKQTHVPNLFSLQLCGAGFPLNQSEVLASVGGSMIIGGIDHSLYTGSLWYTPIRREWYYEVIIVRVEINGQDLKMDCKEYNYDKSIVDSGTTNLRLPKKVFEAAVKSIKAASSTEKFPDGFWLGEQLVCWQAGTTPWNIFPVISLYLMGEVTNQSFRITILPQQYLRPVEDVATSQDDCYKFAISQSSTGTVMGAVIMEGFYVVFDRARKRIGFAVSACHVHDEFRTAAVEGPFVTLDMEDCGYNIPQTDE

B1: P10-P4′staD→V (NH2-KTEEISEVN[sta]VAEF-COOH) (peptide)
peptide: H-KTEEISEVN[Sta]VAEF-OH
notes: Synthetic statine peptide derived from the APPsw cleavage site with D→V at P1′; also called P10-P4′(statine)D→V
binds: β-secretase 46-452 | [1] | [2] | [3] | [4]

Source: patent US7115410 (ELAN PHARMACEUTICALS, dated 2006)
